Assay results as given in the supplement of paper PMC10567573.

B1: VENTX (parent)
chain: VFQHHQYLSPLERKRLAREMQLSE

Variants of: B1
Assay: protein stability index of a GFP-peptide fusion (GPS, HEK-293T) (PSI 1-6); higher = more stable
Conditions: c terminus: a fixed tail appended
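Note: lentivirally expressed fusions sorted by FACS into six bins by GFP to DsRed ratio, PSI derived from sequencing read proportions per bin multiplied by bin number.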

Variant	protein stability index
VFQHHQYLSPLERKRLAREMQLSV [E24V]	1.39
VFQHHQYLSPLERKRLAREMQLSK [E24K]	2.29
VFQHHQYLSPLERKRLAREMQLSL [E24L]	2.07
VFQHHQYLSPLERKRLAREMQLSS [E24S]	2.65
VFQHHQYLSPLERKRLAREMQLST [E24T]	2.27
VFQHHQYLSPLERKRLAREMQLSM [E24M]	2.39
VFQHHQYLSPLERKRLAREMQLSY [E24Y]	2.07
VFQHHQYLSPLERKRLAREMQLSQ [E24Q]	2.5
VFQHHQYLSPLERKRLAREMQLSW [E24W]	2.76
VFQHHQYLSPLERKRLAREMQLSN [E24N]	2.37
VFQHHQYLSPLERKRLAREMQLSI [E24I]	2.23
VFQHHQYLSPLERKRLAREMQLSF [E24F]	1.93
VFQHHQYLSPLERKRLAREMQLSH [E24H]	2.47
VFQHHQYLSPLERKRLAREMQLSC [E24C]	1.82
VFQHHQYLSPLERKRLAREMQLSA [E24A]	2.14
VFQHHQYLSPLERKRLAREMQLSG [E24G]	2.3
VFQHHQYLSPLERKRLAREMQLSD [E24D]	2.48
VFQHHQYLSPLERKRLAREMQLSR [E24R]	1.95
VFQHHQYLSPLERKRLAREMQLSP [E24P]	2.1
VFQHHQYLSPLERKRLAREMRLSE [Q21R]	2.99
VFQHHQYLSPLERKRLAREMHLSE [Q21H]	2.68
VFQHHQYLSPLERKRLAREMFLSE [Q21F]	1.98
VFQHHQYLSPLERKRLAREMALSE [Q21A]	2.49
VFQHHQYLSPLERKRLAREMYLSE [Q21Y]	3.06

Variant	protein stability index
VFQHHQYLSPLERKRLAREMGLSE [Q21G]	2.51
VFQHHQYLSPLERKRLAREMDLSE [Q21D]	3.61
VFQHHQYLSPLERKRLAREMSLSE [Q21S]	2.77
VFQHHQYLSPLERKRLAREMWLSE [Q21W]	2.43
VFQHHQYLSPLERKRLAREMLLSE [Q21L]	2.59
VFQHHQYLSPLERKRLAREMNLSE [Q21N]	2.29
VFQHHQYLSPLERKRLAREMKLSE [Q21K]	2.66
VFQHHQYLSPLERKRLAREMPLSE [Q21P]	2.64
VFQHHQYLSPLERKRLAREMTLSE [Q21T]	2.49
VFQHHQYLSPLERKRLAREMVLSE [Q21V]	2.44
VFQHHQYLSPLERKRLAREMILSE [Q21I]	2.32
VFQHHQYLSPLERKRLAREMELSE [Q21E]	2.54
VFQHHQYLSPLERKRLAREMCLSE [Q21C]	2.5
VFQHHQYLSPLERKRLAREMMLSE [Q21M]	2.06
VFQHHQYLSPLERKRLAREMQGSE [L22G]	1.89
VFQHHQYLSPLERKRLAREMQISE [L22I]	1.93
VFQHHQYLSPLERKRLAREMQFSE [L22F]	1.83
VFQHHQYLSPLERKRLAREMQHSE [L22H]	2.93
VFQHHQYLSPLERKRLAREMQQSE [L22Q]	2.38
VFQHHQYLSPLERKRLAREMQASE [L22A]	2.72
VFQHHQYLSPLERKRLAREMQNSE [L22N]	3.04
VFQHHQYLSPLERKRLAREMQWSE [L22W]	1.96
VFQHHQYLSPLERKRLAREMQPSE [L22P]	2.68
VFQHHQYLSPLERKRLAREMQSSE [L22S]	2.56

Variant	protein stability index
VFQHHQYLSPLERKRLAREMQRSE [L22R]	2.44
VFQHHQYLSPLERKRLAREMQVSE [L22V]	2.27
VFQHHQYLSPLERKRLAREMQYSE [L22Y]	2.17
VFQHHQYLSPLERKRLAREMQDSE [L22D]	3.29
VFQHHQYLSPLERKRLAREMQKSE [L22K]	3.62
VFQHHQYLSPLERKRLAREMQTSE [L22T]	3.12
VFQHHQYLSPLERKRLAREMQCSE [L22C]	2.84
VFQHHQYLSPLERKRLAREMQMSE [L22M]	2.42
VFQHHQYLSPLERKRLAREMQESE [L22E]	2.85
VFQHHQYLSPLERKRLAREMQLQE [S23Q]	3.04
VFQHHQYLSPLERKRLAREMQLEE [S23E]	3.23
VFQHHQYLSPLERKRLAREMQLCE [S23C]	2.41
VFQHHQYLSPLERKRLAREMQLTE [S23T]	2.44
VFQHHQYLSPLERKRLAREMQLDE [S23D]	2.66
VFQHHQYLSPLERKRLAREMQLWE [S23W]	2.04
VFQHHQYLSPLERKRLAREMQLFE [S23F]	2.98
VFQHHQYLSPLERKRLAREMQLPE [S23P]	2.78
VFQHHQYLSPLERKRLAREMQLNE [S23N]	2.25
VFQHHQYLSPLERKRLAREMQLKE [S23K]	2.22
VFQHHQYLSPLERKRLAREMQLVE [S23V]	2.18
VFQHHQYLSPLERKRLAREMQLHE [S23H]	2.37
VFQHHQYLSPLERKRLAREMQLAE [S23A]	3.5
VFQHHQYLSPLERKRLAREMQLIE [S23I]	1.97
VFQHHQYLSPLERKRLAREMQLYE [S23Y]	2.42

Variant	protein stability index
VFQHHQYLSPLERKRLAREMQLLE [S23L]	2.84
VFQHHQYLSPLERKRLAREMQLRE [S23R]	2.33
VFQHHQYLSPLERKRLAREMQLME [S23M]	2.4
VFQHHQYLSPLERKRLAREMQLGE [S23G]	2.5
VFQHHQYLSPLERKRLARWMQLSE [E19W]	1.91
VFQHHQYLSPLERKRLARPMQLSE [E19P]	2.44
VFQHHQYLSPLERKRLARSMQLSE [E19S]	2.42
VFQHHQYLSPLERKRLARQMQLSE [E19Q]	3.09
VFQHHQYLSPLERKRLARTMQLSE [E19T]	2.16
VFQHHQYLSPLERKRLARYMQLSE [E19Y]	1.91
VFQHHQYLSPLERKRLARVMQLSE [E19V]	1.91
VFQHHQYLSPLERKRLARRMQLSE [E19R]	2.38
VFQHHQYLSPLERKRLAREPQLSE [M20P]	2.78
VFQHHQYLSPLERKRLAREEQLSE [M20E]	3.28
VFQHHQYLSPLERKRLAREYQLSE [M20Y]	2.96
VFQHHQYLSPLERKRLAREHQLSE [M20H]	2.57
VFQHHQYLSPLERKRLAREIQLSE [M20I]	2.39
VFQHHQYLSPLERKRLAREAQLSE [M20A]	2.8
VFQHHQYLSPLERKRLARESQLSE [M20S]	2.62
VFQHHQYLSPLERKRLARECQLSE [M20C]	3.43
VFQHHQYLSPLERKRLAREKQLSE [M20K]	2.54
VFQHHQYLSPLERKRLARELQLSE [M20L]	2.75
